Reference: US20210247395A1

Target: NP binding epitope peptide of human Influenza B, residues 31-43 of Nucleoprotein (…) (Influenza B virus (strain B/Lee/1940))
Assay: ELISA on overlapping peptides of NP (strain B/Lee/1940)

| Substance | OD492 nm [OD492 nm] |
| --- | --- |
| Acris mAb 3IF18-InB12, clone InB12 (murine anti-Influenza B nucleoprotein monoclonal antibody) | > 0.4 |
| GenWay mAb GWB-T00595, clone B265M (murine anti-Influenza B nucleoprotein monoclonal antibody) | > 0.4 |
